± gives the standard deviation of the averaged measurements.
System: ATP
Experiment: switch fluorescence ratio, 500 uM ATP over buffer (Cy3 cluster intensity, sum of 5 cycles each) (fold (ratio)); higher = stronger signal-on switching upon ATP binding; sequences stand for … in TCGTCGGCAGCGTCAGATGTGTATAAGAGACAGTTTTTTTTTTTTTTTTTTTTTTTTT…TC
Conditions: aptamer strand: ATP DNA aptamer (quencher-CACCTGGGGGAGTATTGCGGAGGAAGG + anchor), 100 nM annealed; ATP concentration: 500 uM
Summary of the method: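 Switching-strand clusters labelled with Cy3 on a modified Illumina MiSeq flow-cell were annealed to 100 nM quencher-labelled ATP aptamer, imaged in selection buffer, and re-imaged after 15 min with 500 uM ATP at 22 °C. This was done over five cycles with NaOH stripping and re-annealing in between. The fluorescence ratio is summed target-cycle over summed buffer-cycle Cy3 intensity per cluster, averaged per switch-domain sequence, excluding clusters outside 100-1000 RFU.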
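Further: ATP exposure 15 min at 22 °C before imaging.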

Sequence | switch fluorescence ratio
AATTAATTTT | 0.995 ± 0.038
AATTACGGTG | 1.05 ± 0.022
AATTACTTCT | 1.042 ± 0.0026
AATTAGAATG | 0.974 ± 0.029
AATTAGACGT | 0.988 ± 0.015
AATTAGGCGG | 1.02 ± 0.02
AATTAGTGCT | 0.9938 ± 0.0069
AATTATGTCA | 1.01 ± 0.022
AATTATTGGC | 1.02 ± 0.061
AATTCAGATG | 0.9623 ± 0.0077
AATTCAGCCT | 1.06 ± 0.035
AATTCAGTTT | 1.01 ± 0.033
AATTCATTTT | 1.03 ± 0.059
AATTCCATTT | 1.01 ± 0.023
AATTCCGGCG | 1.12 ± 0.098
AATTCCGGGA | 1.05 ± 0.068
AATTCCTCTT | 1.05 ± 0.048
AATTCGACGA | 1.006 ± 0.0056
AATTCGCGGG | 0.981 ± 0.0069
AATTCGTGTT | 0.989 ± 0.021
AATTCTTTTG | 1.01 ± 0.043
AATTGACCCC | 1.09 ± 0.023
AATTGACTTT | 1.04 ± 0.011
AATTGCACGG | 1.04 ± 0.016
AATTGCGTCA | 0.9608 ± 0.0066

Sequence | switch fluorescence ratio
AATTGCGTTT | 1.01 ± 0.024
AATTGGAAGT | 1.01 ± 0.04
AATTGGATCT | 1.01 ± 0.027
AATTGGATGT | 1.01 ± 0.021
AATTGGGATT | 0.998 ± 0.026
AATTGGGCCT | 1.034 ± 0.003
AATTGGTCAT | 1 ± 0.018
AATTGGTGGG | 0.9916 ± 0.0084
AATTGGTTCG | 0.984 ± 0.012
AATTGTAGGG | 0.987 ± 0.03
AATTGTAGTT | 0.9786 ± 0.0048
AATTGTATTA | 0.973 ± 0.041
AATTGTCATT | 1.01 ± 0.019
AATTGTCGCG | 1.01 ± 0.012
AATTGTGGTT | 0.97 ± 0.043
AATTGTTGTG | 1 ± 0.022
AATTGTTTAT | 0.9998 ± 0.0092
AATTTAAAAA | 0.986 ± 0.022
AATTTAAATT | 1 ± 0.037
AATTTAAGGT | 0.977 ± 0.022
AATTTAATGG | 1.04 ± 0.053
AATTTACGTG | 1.06 ± 0.011
AATTTAGGTC | 0.934 ± 0.028
AATTTAGTAT | 0.996 ± 0.022
AATTTAGTGC | 0.998 ± 0.07

Sequence | switch fluorescence ratio
AATTTCGCAA | 3.4 ± 1.3
AATTTGCCGT | 1.04 ± 0.042
AATTTGGGGC | 0.982 ± 0.022
AATTTGGTTA | 0.995 ± 0.045
AATTTGTAAA | 0.981 ± 0.04
AATTTGTCCG | 0.992 ± 0.041
AATTTTAGAG | 0.973 ± 0.045
AATTTTAGCT | 1.008 ± 0.0066
AATTTTGCTG | 0.9662 ± 0.0053
AATTTTGTGG | 1.03 ± 0.014
AATTTTTAT | 1 ± 0.0022
AATTTTTTGA | 0.972 ± 0.033
AATTTTTTTG | 1.04 ± 0.051
AATTTTTTTT | 1.01 ± 0.043
ACAAACTGCA | 1.17 ± 0.067
ACAAATTGCC | 1.031 ± 0.0017
ACAACAGCAC | 1.18 ± 0.03
ACAAGACTGT | 1.04 ± 0.048
ACAAGGAATG | 0.997 ± 0.044
ACAAGGGCAT | 1.03 ± 0.025
ACAAGGGGGG | 1 ± 0.045
ACAAGGGTTA | 0.999 ± 0.018
ACAAGGGTTC | 1 ± 0.015
ACAAGTCGTT | 0.972 ± 0.039
ACAATAAAAG | 1.05 ± 0.044

Sequence | switch fluorescence ratio
ACAATGAGTG | 1.003 ± 0.0011
ACAATGTCTA | 0.962 ± 0.022
ACACACGGTC | 1.34 ± 0.1
ACACAGGGTC | 1.07 ± 0.011
ACACCTAAAC | 1.065 ± 0.0096
ACACGATGCC | 1 ± 0.043
ACACGGGGGC | 1 ± 0.059
ACACGTGGGA | 1.015 ± 0.0032
ACACGTGGGC | 1.02 ± 0.029
ACACGTTTTT | 1 ± 0.014
ACACTAGGGG | 1.23 ± 0.17
ACACTTAGCT | 1.07 ± 0.025
ACAGCGGCTA | 1.02 ± 0.017
ACAGCGGGGG | 1.03 ± 0.045
ACAGCGTTTG | 0.983 ± 0.03
ACAGCTGGCG | 1.05 ± 0.024
ACAGCTGGGT | 0.98 ± 0.015
ACAGCTTTGA | 0.985 ± 0.026
ACAGGAGGAA | 1.01 ± 0.046
ACAGGATGTT | 1.01 ± 0.027
ACAGGCTGCG | 0.995 ± 0.024
ACAGGCTGGT | 1.02 ± 0.028
ACAGGGGAGA | 1.03 ± 0.024
ACAGGGGCCA | 0.999 ± 0.011
ACAGGGGGCT | 1.04 ± 0.051

Sequence | switch fluorescence ratio
ACAGGGGGGG | 1.07 ± 0.19
ACAGGGGTAT | 1.02 ± 0.066
ACAGGGGTTG | 0.978 ± 0.033
ACAGGTTGGT | 1.03 ± 0.018
ACAGTGCTGC | 0.978 ± 0.012
ACAGTGTGTG | 1.02 ± 0.027
ACAGTTAGGG | 1.02 ± 0.024
ACAGTTCTTG | 0.997 ± 0.023
ACATAATTAG | 1.016 ± 0.0095
ACATAGCTTG | 1.03 ± 0.011
ACATAGGCGG | 1.022 ± 0.0083
ACATAGGGGT | 1.01 ± 0.013
ACATCATAAA | 0.988 ± 0.023
ACATCATAGC | 1.048 ± 0.0076
ACATGAAGAT | 1.031 ± 0.0025
ACATGAGCGG | 0.971 ± 0.019
ACATGAGGGA | 1.02 ± 0.067
ACATGAGGGG | 1.026 ± 0.0094
ACATGATAGT | 1.01 ± 0.043
ACATGGGGCG | 1 ± 0.054
ACATGTAGAG | 1 ± 0.0056
ACATGTGTTT | 1.03 ± 0.028
ACATGTTGGT | 1.02 ± 0.028
ACATTAGGGA | 1.04 ± 0.058
ACATTCGTCC | 1.37 ± 0.063

Sequence | switch fluorescence ratio
ACATTGAACG | 1.07 ± 0.017
ACATTGCGAC | 1.137 ± 0.0028
ACATTGGAGG | 0.986 ± 0.025
ACATTGGGCT | 1.01 ± 0.072
ACATTGGGGC | 0.978 ± 0.046
ACATTGTGCG | 0.969 ± 0.048
ACATTTATGT | 0.9939 ± 0.0052
ACATTTCTCA | 1.04 ± 0.021
ACATTTTAAG | 1 ± 0.026
ACATTTTGG | 1.002 ± 0.0081
ACCAAATTCA | 1.04 ± 0.0087
ACCAACCGT | 1.16 ± 0.02
ACCAAGGGAG | 1.037 ± 0.0064
ACCAAGTTTT | 1.019 ± 0.0072
ACCAATGGTC | 1.02 ± 0.041
ACCACAGTTC | 1.06 ± 0.015
ACCAGCTACA | 1.09 ± 0.033
ACCAGGAGAT | 1.046 ± 0.0011
ACCAGGCAGC | 1.12 ± 0.024
ACCAGGGGAG | 1.26 ± 0.066
ACCAGTGGGC | 1.04 ± 0.049
ACCATAAGGG | 1 ± 0.028
ACCATCAGCG | 1.038 ± 0.0019
ACCATTGGTG | 1.12 ± 0.013
ACCCACTGGG | 1.06 ± 0.03

Sequence | switch fluorescence ratio
ACCCAGAGCG | 1.14 ± 0.023
ACCCCCCTGT | 1.37 ± 0.41
ACCCCCTTCT | 1.32 ± 0.048
ACCCCTATTT | 1.1116 ± 0.00045
ACCCGACGAG | 1.03 ± 0.039
ACCCGGATGG | 1.01 ± 0.021
ACCCGGCTTC | 1.024 ± 0.0077
ACCCGGGCTT | 0.995 ± 0.026
ACCCGGGGTT | 0.994 ± 0.013
ACCCGTAATG | 1.75 ± 0.028
ACCCTCGAAT | 1.02 ± 0.011
ACCCTGTTGC | 1.12 ± 0.072
ACCGACCGGG | 1.074 ± 0.005
ACCGCACGGA | 1.55 ± 0.29
ACCGCGGTCG | 0.974 ± 0.049
ACCGGACATG | 1.07 ± 0.034
ACCGGAGGGG | 1.17 ± 0.26
ACCGGAGTTC | 1.23 ± 0.014
ACCGGCACAT | 1.273 ± 0.0092
ACCGGCCAGC | 1.002 ± 0.004
ACCGGCCTGG | 1 ± 0.025
ACCGGGAAAG | 1.062 ± 0.0096
ACCGGGATGG | 0.994 ± 0.024
ACCGGGGGGG | 1 ± 0.035
ACCGGTAAAT | 1.01 ± 0.037

Sequence | switch fluorescence ratio
ACCGTAGGGG | 0.973 ± 0.016
ACCGTGAGGC | 1.02 ± 0.088
ACCGTGTGTG | 0.995 ± 0.046
ACCGTTTGGT | 0.999 ± 0.038
ACCGTTTTGT | 1.02 ± 0.019
ACCTACGAGT | 1.37 ± 0.044
ACCTAGCGCA | 1.33 ± 0.045
ACCTAGTTTT | 1.011 ± 0.0078
ACCTATTCGT | 1.054 ± 0.0047
ACCTGAATAG | 1.14 ± 0.11
ACCTGGTGGG | 0.984 ± 0.028
ACCTTAGTGC | 1.1 ± 0.048
ACGAAAGGTT | 1.034 ± 0.0089
ACGAAATAGT | 1.183 ± 0.0065
ACGAACGATC | 1.35 ± 0.022
ACGAAGAAGT | 1.012 ± 0.0048
ACGAAGGATA | 1.04 ± 0.014
ACGAAGGTCT | 0.998 ± 0.012
ACGAAGTTAG | 0.998 ± 0.015
ACGACCGTTG | 1.02 ± 0.061
ACGACGGTAG | 1.02 ± 0.029
ACGAGAGGGT | 0.973 ± 0.023
ACGAGGACAG | 1.06 ± 0.0025
ACGAGGGAAA | 2.12 ± 1.6
ACGAGGGTCA | 1.01 ± 0.06

Reference: the supplement of paper PMC10126150
